Patent US20240239915A1 (Zymeworks, published 2024)
Changes are numbered by the printed parent chain. Names may count otherwise. Read-outs that look alike come from different tables or passages of the source.

T1: Recombinant Human Fc gamma RIIIB/CD16b Protein (R&D Systems), His-tagged (human, UniProt O75015 20-208)
T1 construct: also called human FcγRIIIb; hFcγRIIIb
T1 chain: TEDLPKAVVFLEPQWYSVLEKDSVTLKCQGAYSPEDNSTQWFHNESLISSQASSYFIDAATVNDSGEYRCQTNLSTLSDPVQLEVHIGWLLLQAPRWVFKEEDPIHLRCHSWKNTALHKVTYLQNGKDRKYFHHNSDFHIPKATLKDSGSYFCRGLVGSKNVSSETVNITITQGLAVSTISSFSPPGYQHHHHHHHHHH

T2: Recombinant Cynomolgus Monkey Fc gamma RI/CD64 Protein, CF (R&D Systems), His-tagged (cynomolgus, UniProt P12314 11-288 (human entry))
T2 construct: also called cynomolgus FcγRI; cFcγRI
T2 chain: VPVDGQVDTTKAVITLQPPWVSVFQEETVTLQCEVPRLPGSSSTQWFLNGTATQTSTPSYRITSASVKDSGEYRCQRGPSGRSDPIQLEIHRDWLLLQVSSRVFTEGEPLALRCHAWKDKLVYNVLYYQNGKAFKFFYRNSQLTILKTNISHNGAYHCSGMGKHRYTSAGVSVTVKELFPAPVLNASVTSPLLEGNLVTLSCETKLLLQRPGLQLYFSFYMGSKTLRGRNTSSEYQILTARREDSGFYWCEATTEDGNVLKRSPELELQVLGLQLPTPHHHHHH

T3: Recombinant Human Fc gamma RIIB/C (CD32b/c) Protein (R&D Systems), His-tagged (human, UniProt P31994 46-217)
T3 construct: also called human FcγRIIb/c; hFcγRIIb/c
T3 sequence: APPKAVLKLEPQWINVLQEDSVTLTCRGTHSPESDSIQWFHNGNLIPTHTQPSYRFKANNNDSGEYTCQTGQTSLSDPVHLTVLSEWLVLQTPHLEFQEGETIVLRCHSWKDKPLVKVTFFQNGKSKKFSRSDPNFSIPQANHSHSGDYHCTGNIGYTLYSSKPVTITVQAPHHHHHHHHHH

T4: Recombinant Human Fc gamma RIIA/CD32a (H167) Protein (R&D Systems), His-tagged (human, UniProt P12318 34-218)
T4 construct: also called human FcγRIIa (H167); hFcγRIIa (H167)
T4 sequence: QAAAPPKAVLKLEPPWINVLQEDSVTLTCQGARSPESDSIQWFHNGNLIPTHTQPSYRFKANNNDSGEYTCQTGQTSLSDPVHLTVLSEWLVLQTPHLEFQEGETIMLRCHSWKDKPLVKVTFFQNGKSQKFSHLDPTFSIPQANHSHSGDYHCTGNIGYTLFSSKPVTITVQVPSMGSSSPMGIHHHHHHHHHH

T5: Recombinant Cynomolgus Fc gamma RIIA/CD32a Protein (R&D Systems), His-tagged (cynomolgus)
T5 construct: also called cynomolgus FcγRIIa; cFcγRIIa
T5 chain: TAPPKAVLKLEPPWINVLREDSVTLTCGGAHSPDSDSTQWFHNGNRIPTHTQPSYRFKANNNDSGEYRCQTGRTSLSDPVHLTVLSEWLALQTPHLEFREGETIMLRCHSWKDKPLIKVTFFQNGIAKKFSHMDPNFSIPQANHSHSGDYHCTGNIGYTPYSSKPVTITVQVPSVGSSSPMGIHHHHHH

T6: Recombinant Cynomolgus Fc gamma RIIB protein (R&D Systems), His-tagged (cynomolgus)
T6 construct: also called cynomolgus FcγRIIb; cFcγRIIb
T6 chain: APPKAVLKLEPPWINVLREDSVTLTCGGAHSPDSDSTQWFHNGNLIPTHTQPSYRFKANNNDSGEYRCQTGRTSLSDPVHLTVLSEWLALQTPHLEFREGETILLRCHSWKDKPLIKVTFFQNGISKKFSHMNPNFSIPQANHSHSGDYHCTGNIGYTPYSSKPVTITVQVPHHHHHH

T7: Recombinant Cynomolgus Fc gamma RIII/CD16 Protein (R&D Systems), His-tagged (cynomolgus, UniProt Q8SPW2 17-208)
T7 construct: also called cynomolgus FcγRIII; cFcγRIII
T7 chain: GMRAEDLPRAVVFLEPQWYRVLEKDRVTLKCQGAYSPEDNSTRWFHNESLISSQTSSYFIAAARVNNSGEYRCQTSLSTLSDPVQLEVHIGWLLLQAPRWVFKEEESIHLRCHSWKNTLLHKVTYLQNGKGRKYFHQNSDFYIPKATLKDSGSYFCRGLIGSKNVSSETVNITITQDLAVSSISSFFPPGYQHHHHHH

B1: LALA variant of the anti-LPS antibody O11-1111 (IgG1) (antibody)
heavy: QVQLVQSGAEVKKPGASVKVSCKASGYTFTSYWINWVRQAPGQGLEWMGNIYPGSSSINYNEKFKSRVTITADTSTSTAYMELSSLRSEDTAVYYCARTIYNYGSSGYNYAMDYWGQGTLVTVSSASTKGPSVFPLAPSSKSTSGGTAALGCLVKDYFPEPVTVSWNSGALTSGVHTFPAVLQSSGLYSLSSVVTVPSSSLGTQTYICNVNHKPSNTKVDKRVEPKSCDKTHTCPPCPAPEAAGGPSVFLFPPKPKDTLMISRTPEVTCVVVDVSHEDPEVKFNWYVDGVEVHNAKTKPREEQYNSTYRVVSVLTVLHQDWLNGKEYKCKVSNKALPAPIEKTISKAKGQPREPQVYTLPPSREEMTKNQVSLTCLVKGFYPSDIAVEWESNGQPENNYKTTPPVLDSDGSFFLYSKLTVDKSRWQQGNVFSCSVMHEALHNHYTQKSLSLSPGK
light: DIVMTQSPDSLAVSLGERATINCKASENVGNSVSWYQQKPGQPPKLLIYGASNRYTGVPDRFSGSGSGTDFTLTISSLQAEDVAVYYCGQSYSYPYTFGQGTKVEIKRTVAAPSVFIFPPSDEQLKSGTASVVCLLNNFYPREAKVQWKVDNALQSGNSQESVTEQDSKDSTYSLSSTLTLSKADYEKHKVYACEVTHQGLSSPVTKSFNRGEC
notes: LALA substitutions in EU numbering; also called Anti-LPS Antibody LALA
B2: L234A/L235A/D265G/P329A (LALA-DGPA) variant of IgG1 WT of the anti-EGFR antibody panitumumab (antibody)
heavy: QVQLQESGPGLVKPSETLSLTCTVSGGSVSSGDYYWTWIRQSPGKGLEWIGHIYYSGNTNYNPSLKSRLTISIDTSKTQFSLKLSSVTAADTAIYYCVRDRVTGAFDIWGQGTMVTVSSASTKGPSVFPLAPSSKSTSGGTAALGCLVKDYFPEPVTVSWNSGALTSGVHTFPAVLQSSGLYSLSSVVTVPSSSLGTQTYICNVNHKPSNTKVDKRVEPKSCDKTHTCPPCPAPEAAGGPSVFLFPPKPKDTLMISRTPEVTCVVVGVSHEDPEVKFNWYVDGVEVHNAKTKPREEQYNSTYRVVSVLTVLHQDWLNGKEYKCKVSNKALAAPIEKTISKAKGQPREPQVYTLPPSREEMTKNQVSLTCLVKGFYPSDIAVEWESNGQPENNYKTTPPVLDSDGSFFLYSKLTVDKSRWQQGNVFSCSVMHEALHNHYTQKSLSLSPGK
light: not shown
notes: Positions are EU numbers
B3: L234A/L235A/P329G (LALA-PG) variant of IgG1 WT of the anti-EGFR antibody panitumumab (antibody)
heavy: B2 heavy with G267D, A331G
light: not shown
notes: Mutations in both CH2 domains; positions are EU numbers
B4: L234A/L235A/D265T (LALA-DT) variant of IgG1 WT of the anti-EGFR antibody panitumumab (antibody)
heavy: B2 heavy with G267T, A331P
light: not shown
notes: as for B3
B5: L234A/L235A/D265Q (LALA-DQ) variant of IgG1 WT of the anti-EGFR antibody panitumumab (antibody)
heavy: B2 heavy with G267Q, A331P
light: not shown
notes: as for B3
B6: L234A/L235A/D265N (LALA-DN) variant of IgG1 WT of the anti-EGFR antibody panitumumab (antibody)
heavy: B2 heavy with G267N, A331P
light: not shown
notes: as for B3

Experiments:
[1] = molecular target: T1, Recombinant Human Fc gamma RIIIB/CD16b …; test: SPR (Biacore T200); receptor immobilized directly on CM5 chip, antibody as analyte at 4.7 µM
[2] = molecular target: T8, human FcRn (human neonatal Fc receptor large subunit p51 and beta2-microglobulin), biotinylated (human, UniProt P55899 24-297; P61769 21-119, biotinylated (site not stated)); test: BLI (Octet RED384), biotinylated FcRn on streptavidin biosensor, binding at pH 6.0, dissociation at pH 7.4
T8 sequence (P55899 24-297 limits assumed, chain 1 of 2): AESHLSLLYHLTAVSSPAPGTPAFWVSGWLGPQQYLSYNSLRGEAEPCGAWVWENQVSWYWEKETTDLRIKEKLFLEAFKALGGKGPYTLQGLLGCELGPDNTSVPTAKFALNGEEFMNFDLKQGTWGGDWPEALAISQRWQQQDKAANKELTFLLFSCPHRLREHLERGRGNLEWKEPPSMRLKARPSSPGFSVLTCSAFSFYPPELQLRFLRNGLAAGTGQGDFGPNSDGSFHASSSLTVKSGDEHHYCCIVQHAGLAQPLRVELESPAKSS
T8 sequence (P61769 21-119 limits assumed, chain 2 of 2): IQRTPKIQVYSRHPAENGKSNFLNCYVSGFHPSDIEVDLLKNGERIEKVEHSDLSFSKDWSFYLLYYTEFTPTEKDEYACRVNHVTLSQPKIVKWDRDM

[3] = molecular target: T8, human FcRn (human neonatal Fc receptor …); test: BLI (Octet RED384), biotinylated FcRn on streptavidin biosensor, binding and dissociation at pH 6.0
[4] = molecular target: T2, Recombinant Cynomolgus Monkey Fc gamma …; test: SPR (Biacore T200); His-tagged receptor captured on anti-His antibody chip, antibody as analyte at 4.7 µM
[5] = molecular target: T3, Recombinant Human Fc gamma RIIB/C …; test: SPR (Biacore T200); receptor immobilized directly on CM5 chip, antibody as analyte at 4.7 µM
[6] = molecular target: T4, Recombinant Human Fc gamma RIIA/CD32a …; test: as above
[7] = molecular target: T9, Recombinant Human Fc gamma RIIIA/CD16a protein (R&D Systems), His-tagged (human, UniProt P08637 17-208); test: as above
T9 construct: also called human FcγRIIIa; hFcγRIIIa
T9 sequence (P08637 other isoform, or with tags, fused parts or gaps): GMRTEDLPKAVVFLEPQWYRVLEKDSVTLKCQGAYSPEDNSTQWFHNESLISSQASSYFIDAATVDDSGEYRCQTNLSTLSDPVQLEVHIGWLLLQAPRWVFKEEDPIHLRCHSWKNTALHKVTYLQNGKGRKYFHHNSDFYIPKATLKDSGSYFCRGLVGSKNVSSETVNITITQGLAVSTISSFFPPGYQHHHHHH

[8] = molecular target: T1, Recombinant Human Fc gamma RIIIB/CD16b …; test: as above
[9] = molecular target: T10, Recombinant Human Fc gamma RIIIA/CD16a (V176F) Protein (R&D Systems), His-tagged (human, UniProt P08637 17-208); test: as above
T10 construct: no further substitution applied; also called human FcγRIIIa (V176F); hFcγRIIIa (V176F)
T10 sequence (P08637 other isoform, or with tags, fused parts or gaps V176F V176F): as the sequence (P08637 other isoform, or with tags, fused parts or gaps) above, with V160F counted along it

[10] = molecular target: T5, Recombinant Cynomolgus Fc gamma …; test: as above
[11] = molecular target: T6, Recombinant Cynomolgus Fc gamma RIIB …; test: as above
[12] = molecular target: T7, Recombinant Cynomolgus Fc gamma …; test: as above
[13] = molecular target: T2, Recombinant Cynomolgus Monkey Fc gamma …; test: SPR (Biacore T200), RU at 4.7 µM antibody
[14] = molecular target: T3, Recombinant Human Fc gamma RIIB/C …; test: SPR (Biacore T200); receptor immobilized directly on CM5 chip, antibody as analyte at 4.7 µM; remark: listed apart in the source
[15] = molecular target: T4, Recombinant Human Fc gamma RIIA/CD32a …; test: as above; remark: listed apart in the source
[16] = molecular target: T9, Recombinant Human Fc gamma RIIIA/CD16a …; test: as above; remark: listed apart in the source
[17] = molecular target: T1, Recombinant Human Fc gamma RIIIB/CD16b …; test: as above
[18] = molecular target: T10, Recombinant Human Fc gamma RIIIA/CD16a …; test: as above; remark: listed apart in the source
[19] = molecular target: T5, Recombinant Cynomolgus Fc gamma …; test: as above
[20] = molecular target: T6, Recombinant Cynomolgus Fc gamma RIIB …; test: as above
[21] = molecular target: T7, Recombinant Cynomolgus Fc gamma …; test: as above

Binder | RU value relative to the LALA-DA variant [13] | binding response (RU) [14] | binding response (RU) [15] | binding response (RU) [16] | binding response (RU) [17] | binding response (RU) [18] | binding response (RU) [19] | binding response (RU) [20] | binding response (RU) [21] | also measured
B1 |  |  |  |  |  |  |  |  |  | binding response (RU) [1]: -1.4 RU
B2 |  |  |  |  |  |  |  |  |  | koff [2]: 2.3 s⁻¹; Kd [3]: 5 nM
B3 |  |  |  |  |  |  |  |  |  | binding response (RU) [4]: 1300 RU; binding response (RU) [5]: 19 RU; binding response (RU) [6]: 19 RU; binding response (RU) [7]: -0.7 RU; binding response (RU) [8]: -0.4 RU; binding response (RU) [9]: -0.8 RU; binding response (RU) [10]: 23 RU; binding response (RU) [11]: 110 RU; binding response (RU) [12]: 10 RU
B4 | ≥ 1.4 fold | 15 RU | 37 RU | -1.4 RU | -0.2 RU | -3.6 RU | 24 RU | 93 RU | 4.8 RU | 
B5 | ≥ 1.4 fold | 15 RU | 34 RU | -2.1 RU | -0.6 RU | -3.5 RU | 22 RU | 89 RU | 3.5 RU | 
B6 |  | 14 RU | 21 RU | -3.3 RU | -1 RU | -5 RU | 19 RU | 85 RU | 3.1 RU | 
